The record followed here is patent publication US20250051735A1 (VANDERBILT UNIVERSITY, published 2025).

The data set concerns the molecule itself. In words: sedimentation velocity analytical ultracentrifugation (self-association). As to the method: Sedimentation velocity data were collected at 50,000 rpm and 20° C. on a Beckman Coulter ProteomeLab XL-I analytical ultracentrifuge following standard protocols (Zhao, H., et al. Curr Protoc Protein Sci, 2013 Chapter 20, Unit20 12). 2-channel, 12 mm centerpiece cells were used, and sedimentation was monitored with the absorbance (280 nm) and Rayleigh interference (655 nm) detection systems. A continuous c(s) distribution of Lamm equation solutions, as implemented in SEDFIT (Schuck, P. Biophys J 2000 78:1606-1619), modeled the sedimentation data. […] (Cole, J. L., et al. Methods Cell Biol 2008 84:143-179) provided the solution densities ρ, solution viscosities η, and protein partial specific volumes required for the analysis.
The N-terminus is required for transposase dimerization prior to transposon end binding. Although an attempt was made to explore the role of the piggyBac transposase N-terminus using purified proteins, no soluble N-terminally truncated transposases was recovered under conditions successfully used for the WT transposase in EXPI293F cells (Chen, Q., et al. Nat Commun, 2020 11:3446). To circumvent this, a TEV protease cleavage site was introduced between resides 74 and 75 which allowed expression and purification of a full-length protein and then proteolytical removal of the first 74 amino acids.

B1: PB74-539 transposase generated by proteolytic cleavage (TEV-cleaved TEVΔ74PB1-539) (enzyme)
chain: GSSLASNRILTLPQRTIRGKNKHCWSTSKSTRRSRVSALNIVRSQRGPTRMCRNIYDPLLCFKLFFTDEIISEIVKWTNAEISLKRRESMTGATFRDTNEDEIYAFFGILVMTAVRKDNHMSTDDLFDRSLSMVYVSVMSRDRFDFLIRCLRMDDKSIRPTLRENDVFTPVRKIWDLFIHQCIQNYTPGAHLTIDEQLLGFRGRCPFRMYIPNKPSKYGIKILMMCDSGTKYMINGMPYLGRGTQTNGVPLGEYYVKELSKPVHGSCRNITCDNWFTSIPLAKNLLQEPYKLTIVGTVRSNKREIPEVLKNSRSRPVGTSMFCFDGPLTLVSYKPKPAKMVYLLSSCDEDASINESTGKPQMVMYYNQTKGGVDTLDQMCSVMTCSRKTNRWPMALLYGMINIACINSFIIYSHNVSSKGEKVQSRKKFMRNLYMSLTSSFMRKRLEAPTLKRYLRDNISNILPNE
With B1, the binding result was “no binding”.
